{"source": "patent US20200138870A1", "about": "“RECREATION OF PANCREATIC NICHE ALLOWS FOR NOVEL METHODS FOR HUMAN, MATURE BETA DERIVATION FROM PLURIPOTENT STEM CELLS” (Baylor College of Medicine, priority 2016, published 2020)", "molecules": {"B1": {"name": "WNT5A: secreted growth factor from the human pancreatic niche (R&D), used at 100 or 500 ng/ml (protein)", "chain": "IIGAQPLCSQLAGLSQGQKKLCHLYQDHMQYIGEGAKTGIKECQYQFRHRRWNCSTVDNTSVFGRVMQIGSRETAFTYAVSAAGVVNAMSRACREGELSTCGCSRAARPKDLPRDWLWGGCGDNIDYGYRFAKEFVDARERERIHAKGSYESARILMNLHNNEAGRRTVYNLADVACKCHGVSGSCSLKTCWLQLADFRKVGDALKEKYDSAAAMRLNSRGKLVQVNSRFNSPTTQDLVYIDPSPDYCVRNESTGSLGTQGRLCNKTSEGMDGCELMCCGRGYDQFKTVQTERCHCKFHWCCYVKCKKCTEIVDQFVCK"}}, "assay_type_in_all_cases": "cell-based, human", "key": {"[1]": {"test_system": "JNK", "experiment": "Western blot for phosphorylated JNK and total JNK", "details": "short-term (12h) treatment, 500 ng/ml WNT5A", "description": "ISL1-EGFP hESCs were differentiated into EPs and first balanced with basal media (DMEM with 1% BSA and NEAA) for 6h and then treated with 500 ng/ml WNT5A in basal media. After 12h, cell lysates were collected as imilion of EPs were pelleted, PBS washed and resuspended in 250 μl of lysis buffer (10 mM HEPES pH7.5, 10 mM MgCl2, 5 mM KCl, 0.1 mM EDTA pH8, 0.1% TritonX-100, 0.2 mM PMSF, 1 mM DTT, 1 tab of Complete Protease Inhibitor Cocktail (Roche)). Cell lysates were centrifuged 12,000 g at 4° C. for 15 min and their supernatants were collected. BCA assay were performed using Pierce BCA protein assay kit (Thermo) to determine protein concentration. For Western blot, […] of protein were denatured with 4x Laemmeli buffer (40% glycerol, 8% SDS, 240 mM Tris-HCl pH6.8, 5% β-mercaptoethanol, 12.5 mM EDTA, 0.04% bromophenol blue) at 95° C. 3 min and resolved in 8% SDS-PAGE. PVDF membranes (BioRad) were used for transfer and membrane were blocked with 5% BSA in Tris-buffered saline with 1% Tween 20 (TBST) for 1h before applying primary antibody. Membranes were washed thrice for 10 min and anti-rabbit IgG-HRP (GE Life Science) were added for 3h at RT, followed by three washes. HyGLO™ Quick Spray Chemiluminescent HRP Antibody Detection Reagent (Denville Scientific Inc.) was used to detect antigen and the membrane was developed using CL-XPosure Film (Thermo Scientific). […]"}, "[2]": {"test_system": "EPs", "experiment": "Scratch assay (cell migration)", "details": "100 or 500 ng/ml WNT5A, 30h", "description": "EPs were dissociated and seeded into 12 well-plate to reach 90% confluence before a scratch was made. 200 μl pipette tip was used to create a smooth scratch and followed by 3h of mitomycin C treatment. Cells were then washed thrice with PBS and B27 media with or without WNT5A was added. Pictures of the scratch wound were taken at 0, 6, 12, 18, 24 and 30h after scratch to observe cell migration. Pictures were analyzed by counting cells migrating into the gap using ImageJ."}, "[3]": {"test_system": "EPs", "experiment": "Proliferation by phospho-histone H3 (pH3) staining after WNT5A treatment", "description": "(§1) Cells were incubated with 5% donkey serum (Jackson ImmunoResearch Laboratories) in PBST (PBS+0.1% Triton-X) for 30 min to avoid nonspecific binding of the antibody and to permeabilize the cells. Primary antibodies, diluted in 5% donkey serum in PBST, were then added and incubated at 4° C. overnight with shaking. After primary antibody incubation, cells were washed 3 times with PBST and secondary antibodies conjugated with Alexa-Fluor Dyes (Jackson ImmunoResearch Laboratories) and diluted in 5% donkey serum in PBST were added to the cells for 30 min at RT. Then, cells were thrice washed with PBST and nuclei were stained with Dapi (Roche Diagnostics). For imaging, Leica DMI6000 or confocal Leica TCS SPE was used. Images were initially processed by LAS X software and then further analyzed and quantified using ImageJ software (NIH, W Rasband, http://rsb.info.nih.gov/ij) using cell counter plug-in. Typically, at least 5 randomly selected images were counted per condition."}, "[4]": {"test_system": "hESC-derived EPs", "experiment": "Growth factor treatment of hESC-derived EPs for 3 days, immunofluorescence quantification of marker-positive cells", "description": "hESC, ISL1-EGFP Hues8 and H1, were maintained under a feeder-free system on Geltrex (Invitrogen) in TeSR-E8 media (Stemcell Technologies). Cells were passaged at 70-80% confluence using TrypLE (Invitrogen). After dissociation, cells were seeded in TeSR-E8 media+10 μM Y-27632 for 24h. Differentiation was started when cells were 90% confluent. The following media and growth factors/small molecules (see also Table 3) were used: Day1: MCDB-131 media with 0.1% BSA+10 mM glucose+ActivinA and CHIR99021. Day2-3: MCDB-131 media+0.1% BSA+10 mM glucose+ActivinA. Day4-5: MCDB-131+0.1% BSA, 10 mM glucose, VitC+KGF. Day6-9: MCDB-131 2% BSA+5.5 mM glucose+Vit.C+ITS (Invitrogen)+ActivinA+KGF+RA+SANT-1+Noggin. Day10-12: MCDB-131+2% BSA+5.5 mM glucose+VitC+ITS+SANT-1+Noggin+PdBU. Day13-15: MCDB-131+2% BSA+5.5 mM glucose+VitC+ITS+Noggin+AlK5i. EPs were dissociated and seeded as 25,000 cells/well on Geltrex-coated 96-well plates in DMEM media (Invitrogen) with B27 Supplement (Thermo Fisher Scientific), later called B27 media, supplemented with 10 µM Y-27632 for 24h. Growth factors (Table 3) were added to B27 media, at two concentrations, and tested on EPs for 3 days. After 3 days, cells were PBS washed, fixed with 4% PFA/PBS for 20 min at room temperature (RT), washed twice with PBS and stained.\nas §1"}}}
{"molecule": "B1", "values": [{"measurement": "JNK expression and phosphorylation (in words)", "setting": "[1]", "result": "increased"}, {"measurement": "cell mobility in scratch assays (in words)", "setting": "[2]", "result": "no increase in cell mobility"}, {"measurement": "effect in EP proliferation (in words)", "setting": "[3]; 3 days of WNT5A treatment", "result": "modest effect"}, {"measurement": "pH3+ cells", "setting": "[3]; 3 days of WNT5A treatment (1% in control)", "result": 2, "unit": "%"}, {"measurement": "number of INS+ cells", "setting": "[4]; 100 ng/ml of WNT5A (30% in B27)", "result": 39, "unit": "%"}, {"measurement": "number of INS+ cells", "setting": "[4]; 500 ng/ml WNT5A (30% in B27)", "result": 60, "unit": "%"}, {"measurement": "decrease in the number of GCG+ cells", "setting": "[4]; 3-day EP treatment, vs untreated control", "result": 3, "unit": "fold"}, {"measurement": "average increase in number of cells positive for all test markers", "setting": "[4]; 3 days treatment of EPs", "result": 5, "unit": "fold"}, {"measurement": "numbers of ISL1-eGFP, CHGA+, INS+ and C-peptide+ cells over untreated controls (in words)", "setting": "[4]; 3 days treatment of EPs", "result": "increased"}, {"measurement": "number of INS+ cells among all factors and combinations tested (in words)", "setting": "[4]; WNT5A in different combinations at 500 ng/ml, 3 days", "result": "consistently and most significantly increased"}, {"measurement": "fold increase in number of ins+ cell generate from hESCs", "setting": "[4]; growth factors alone or in combination", "result": 6, "unit": "fold"}]}
